According to patent publication US5942405A, “Therapeutic and screening methods using C3a receptor and C3a” (priority 1997, dated 1999):

T1: C3a Receptor (Homo sapiens, UniProt Q16581)
T1 sequence (Q16581 1-482 F151C): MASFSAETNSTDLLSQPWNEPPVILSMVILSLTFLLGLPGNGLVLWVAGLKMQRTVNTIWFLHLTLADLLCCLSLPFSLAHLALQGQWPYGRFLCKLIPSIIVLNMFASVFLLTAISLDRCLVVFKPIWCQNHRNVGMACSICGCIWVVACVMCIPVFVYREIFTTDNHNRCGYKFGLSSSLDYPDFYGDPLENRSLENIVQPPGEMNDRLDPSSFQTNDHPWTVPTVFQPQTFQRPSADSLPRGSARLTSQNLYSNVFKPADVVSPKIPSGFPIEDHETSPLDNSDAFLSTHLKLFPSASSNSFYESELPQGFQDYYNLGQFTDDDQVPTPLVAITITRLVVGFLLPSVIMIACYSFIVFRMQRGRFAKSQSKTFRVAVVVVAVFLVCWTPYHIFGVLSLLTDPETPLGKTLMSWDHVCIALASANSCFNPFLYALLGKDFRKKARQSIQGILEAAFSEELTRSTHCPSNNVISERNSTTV

B1: rC5a: Human rC5a was expressed in E. coli and purified to homogeneity (protein, UniProt P01031 678-751, looked up)
C5a anaphylatoxin: TLQKKIEEIAAKYKHSVVKKCCYDGACVNNDETCEQRAARISLGPRCIKAFTECCVVASQLRANISHKDMQLGR
modifications: C5a anaphylatoxin recombinant, E. coli
notes: Human rC5a was expressed in E. coli and purified to homogeneity

Key:
C5a-R = assay: Calcium mobilization by Fura 2 loaded RBL-2H3 cells stably expressing C5a-R; format: cell-based, human; conditions: RBL-2H3 cells expressing C5a-R, Fig. 4: rC5a 10 nM, C3a analogue peptide 1 uM
Protocol: (A) Electrophysiological response of Xenopus oocytes injected with cRNA for C3a Receptor (10 ng), total U937 RNA (25 ng), or a mixture of C3a Receptor (10 ng) and U937 RNA (25 ng) to 10 nM rC5a, 10 nM C3a analogue peptide, 10 nM platelet activating factor (PAF), 10 nM fMetLeuPhe. Inset, represents typical response of oocytes co-injected with C3a Receptor cRNA+U937 RNA to 10 nM C3a. (B) Electrophysiological response of oocytes injected with C5a-R cRNA (10 ng), U937 RNA (25 ng) or a mixture of C5a-R and U937 RNA, to 10 nM rC5a or 10 nM C3a analogue peptide. […] Calcium mobilization by Fura 2 loaded cells expressing C5a receptor (FIGS. 4A & 4C) or C3a Receptor (FIGS. 4B & 4D) in response to rC5a (10 nM, FIG. 4A or 100 nM, FIG. 4B) or C3a analogue peptide (1 uM, FIGS. 4C & 4D).
(§1) To prepare C3a Receptor for expression in mammalian cells, a 1.6 kb cDNA fragment was obtained by PCR amplification that encompassed the entire C3a Receptor open reading frame. This fragment was subcloned into KpnI/Hind III sites of the mammalian expression vector, pCDN (Aiyar, N., et al (1994) Mol. Cell. Bio. 131, 75-86). Oligonucleotide primers used for PCR amplification were 5'-GA AGT GGT ACC ATG GCG TC-3' (SEQ ID NO:4) and 5'-GC TCCAAGCTTTCACACAGTTG-3' (SEQ ID NO:5) (the translation start and stop codons are underlined). RBL-2H3 cells were electroporated with either C3a Receptor or C5a-R in the pCDN mamalian expression vector (Aiyar, N., et al (1994) Mol. Cell. Bio. 131, 75-86), exactly as described (DeMartino, J. A., et al (1994) J. Biol Chem. 269, 14446-14450). Individual G418 resistant (400 μg/ml) colonies were isolated and expanded. Clonal cell lines expressing either C3a Receptor or C5a-R were chosen for further functional and binding studies.
RBL-2H3 cells (Siraganian, R. P., et al (1982) Fed. Proc. 41, 30-34), a rat basophil cell line, when transfected with an expression plasmid encoding the C5a-R express receptors that are functionally active (DeMartino, J. A., et al (1994) J. Biol. Chem. 269, 14446-14450). RBL-2H3 cells were stably transfected with mammalian expression plasmids encoding the C5a-R or C3a Receptor and Fura 2 loaded cells were tested for a C5a or C3a induced mobilization of intracellular Ca^2+.
Fura 2 loaded clonal cell lines expressing C5a-R or C3a Receptor were assayed for functional response, Ca^2+ mobilization, as described (Saussy, D. L. Jr., et al (1989) J. Biol. Chem. 264, 19845-19855).

C3a Receptor = target: T1, C3a Receptor; assay: Whole cell 125I-C3a binding to C3a Receptor expressing RBL-2H3 cells (competition and saturation); parameters: cDNA encoding a complete orphan GPCR of 482 amino acids; expressed in transfected cells; conditions: for IC50: RBL-2H3 cells expressing C3a Receptor, 1×10^6 cells; for IC50 / competition of 125I-C3a binding / specific binding (in words): 2.3 nM labelled C3a; for competition of 125I-C3a binding / specific binding (in words): cells expressing C3a Receptor
Excerpt: as §1
The C3a carboxy-terminal analogue synthetic peptide, [WWGKKYRASKLGLAR (SEQ ID NO:3)] was obtained from Bachem Bioscience, Inc., King of Prussia, Pa. C3a was purchased from Advanced Research Technologies, San Diego, Calif. Human rC5a was expressed in E. coli and purified to homogeneity. Other agonists were obtained from Sigma, St. Louis, MO. C3a was radioiodinated using IODOBEADS (Pierce, Rockford Ill.) to a specific activity of 100 Cilmmol. Increasing concentrations of cold competitor were added to 1×10^6 cells in the presence of ^125 -C3a (2.3 nM), and the assay was performed essentially as described (Klos, A., et al (1992) Biochemistry 31, 11274-11282).
C3a was radioiodinated and used in whole cell binding assays to further characterize C3a Receptor. […] Curiously, HEK 293 cells stably expressing C3a Receptor mRNA by Northern Blot, neither bound nor responded to C3a (data not shown).

Molecule | mobilization of intracellular Ca2+ (response in words) (C5a-R) | mobilization of intracellular Ca2+ (response in words) (C5a-R; listed as native human C3a) | IC50 (C3a Receptor) [nM] | competition of 125I-C3a binding / specific binding (in words) (C3a Receptor) | Bmax (C3a Receptor; saturation binding and Scatchard analysis, data not shown) | Kd (C3a Receptor; saturation binding and Scatchard analysis, single class of sites, data not shown) [nM]
C3a: C3a was purchased from Advanced Research Technologies, San Diego; anaphylatoxin; radioiodinated for binding | not C5a receptor bind and respond | not C5a-R expressing RBL-2H3 cells also responded | 3 | specifically bind | 32,000 receptors per cell | 0.3
WWGKKYRASKLGLAR [C3a analogue synthetic peptide, reference compound] | no response |  | 155 | specifically bind |  | 
B1 | responded |  |  | not |  | 
